Source: paper PMC11615320 (Communications Biology, 2024)
Substitutions are numbered along the chain they refer to. In names and notes the source's numbering stands.

Columns and labels:
[1] = biological target: the molecule itself; experiment: single-molecule TIRF microscopy, kinetics
[2] = biological target: the molecule itself; experiment: single-molecule TIRF microscopy with step-photobleaching and intensity counting
[3] = biological target: the molecule itself; experiment: single-molecule TIRF microscopy, real-time dissociation

B1: cytosolic domain of Synaptotagmin-1 (Syt-1), residues 79 to 421, wild type (domain or fragment, rat, UniProt P21707 79-421, looked up)
chain: CKKSLFKKKNKKKGKEKGGKNAINMKDVKDLGKTMKDQALKDDDAETGLTDGEEKEEPKEEEKLGKLQYSLDYDFQNNQLLVGIIQAAELPALDMGGTSDPYVKVFLLPDKKKKFETKVHRKTLNPVFNEQFTFKVPYSELGGKTLVMAVYDFDRFSKHDIIGEFKVPMNTVDFGHVTEEWRDLQSAEKEEQEKLGDIAFSLRYVPTAGKLTVVILEAKNLKKMDVGGLSDPYVKIHLMQNGKRLKKKKTTIKKNTLNPYYNESFSFEVPFEQIQKVQVVVTVLDYDKIGKNDAIGKVFVGYNSTGAELRHWSDMLANPRRPIAQWHTLQVEEEVDAMLAVKK
modifications: AlexaFluor 647 maleimide or AlexaFluor 488 maleimide on Cys79
For B1, the “KD of the large clusters” value [1] was 6 ± 2 nM, the “KD of the small clusters” value [1] was 40 ± 8 nM and the “stoichiometry N” value [2] was 5 ± 2 copies. It also gave a koff [3] of 0.0024 ± 0.0004 s⁻¹.

B2: cytosolic domain (residues 79 to 421) of the Syt-1 F349A mutant (domain or fragment, rat, UniProt P21707 79-421, looked up)
chain: B1 chain with F271A
modifications: AlexaFluor 647 maleimide or AlexaFluor 488 maleimide on Cys79
In the case of B2, the Kd [1] is reported as 45 ± 15 nM and the koff [3] is reported as 0.0017 ± 0.0003 s⁻¹.
